Our source for the response values is publication PMC9218434.

The target of the assay is nucleosome core particle (NCP) of human histones H2A, H2B, H3.1 and H4 with the 145 base-pair Widom 601 DNA, P04908;P06899;P68431;P62805. Description: electrophoretic mobility shift assay. Particulars: non-denaturing 4% polyacrylamide gel, SYBR Gold staining, n = 3, read off a plot. For orientation: In EMSA bound probe runs differently from free probe, usually more slowly.

Turning to “p300(BRPH_(ΔAIL)Z), catalytic core of human p300 (aa 1035-1720, Y1467F, autoinhibition loop replaced by a linker) (from UniProt Q09472) K1456A; K1459A; K1461A; R1462A”, the response by setting is: (0.4 µM p300(BRPHΔAILZ), parent: est. 48) 2.5%; (0.8 µM p300(BRPHΔAILZ), parent: est. 71) 6%; (1.2 µM p300(BRPHΔAILZ), parent: est. 82) 8.5%.

With “p300(BRPH_(ΔAIL)Z), catalytic core of human p300 (aa 1035-1720, Y1467F, autoinhibition loop replaced by a linker) (from UniProt Q09472) R1137A”, the response runs as follows: (0.4 µM p300(BRPHΔAILZ), parent: est. 41) 3.3%; (0.8 µM p300(BRPHΔAILZ), parent: est. 62) 8%; (1.2 µM p300(BRPHΔAILZ), parent: est. 75) 13%.
